Measured values published in the supplement of paper PMC10567573.

B1: HMOX1 (parent)
chain: YHIYVALEEEIERNKESPVFAPVY
B2: IFRG15 (parent)
chain: INRADYCPECYPDNPANRSLVLPW

Variants of: B1
Test: protein stability index of a GFP-peptide fusion (GPS, HEK-293T) (PSI 1-6); higher = more stable
Conditions: c terminus: a fixed tail appended
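Further: lentivirally expressed fusions sorted by FACS into six bins by GFP to DsRed ratio, PSI derived from sequencing read proportions per bin multiplied by bin number.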

Variant	protein stability index
YHIYVALEEEIERNKESPVFAPVS [Y24S]	2.84
YHIYVALEEEIERNKESPVFAPVH [Y24H]	2.48
YHIYVALEEEIERNKESPVFAPVW [Y24W]	1.98
YHIYVALEEEIERNKESPVFAPVG [Y24G]	2.83
YHIYVALEEEIERNKESPVFAPVL [Y24L]	2.31
YHIYVALEEEIERNKESPVFAPVN [Y24N]	2.9
YHIYVALEEEIERNKESPVFAPVM [Y24M]	2.22
YHIYVALEEEIERNKESPVFAPVV [Y24V]	2.51
YHIYVALEEEIERNKESPVFAPVP [Y24P]	3.47
YHIYVALEEEIERNKESPVFAPVE [Y24E]	3.33
YHIYVALEEEIERNKESPVFAPVA [Y24A]	3.11
YHIYVALEEEIERNKESPVFAPVF [Y24F]	1.78
YHIYVALEEEIERNKESPVFAPVK [Y24K]	2.69
YHIYVALEEEIERNKESPVFAPVI [Y24I]	2.49
YHIYVALEEEIERNKESPVFAPVT [Y24T]	2.96
YHIYVALEEEIERNKESPVFAPVC [Y24C]	2.23
YHIYVALEEEIERNKESPVFAPVQ [Y24Q]	3.09
YHIYVALEEEIERNKESPVFAPVR [Y24R]	3.01
YHIYVALEEEIERNKESPVFAPVD [Y24D]	3.35
YHIYVALEEEIERNKESPVEAPVY [F20E]	2.52
YHIYVALEEEIERNKESPVPAPVY [F20P]	2.82
YHIYVALEEEIERNKESPVGAPVY [F20G]	3.15
YHIYVALEEEIERNKESPVNAPVY [F20N]	2.78

Variant	protein stability index
YHIYVALEEEIERNKESPVMAPVY [F20M]	2.81
YHIYVALEEEIERNKESPVLAPVY [F20L]	2.66
YHIYVALEEEIERNKESPVSAPVY [F20S]	2.78
YHIYVALEEEIERNKESPVTAPVY [F20T]	2.57
YHIYVALEEEIERNKESPVCAPVY [F20C]	3.24
YHIYVALEEEIERNKESPVIAPVY [F20I]	2.25
YHIYVALEEEIERNKESPVHAPVY [F20H]	2.47
YHIYVALEEEIERNKESPVAAPVY [F20A]	2.41
YHIYVALEEEIERNKESPVQAPVY [F20Q]	2.42
YHIYVALEEEIERNKESPVVAPVY [F20V]	3.06
YHIYVALEEEIERNKESPVYAPVY [F20Y]	2.19
YHIYVALEEEIERNKESPVKAPVY [F20K]	2.27
YHIYVALEEEIERNKESPVRAPVY [F20R]	2.95
YHIYVALEEEIERNKESPVWAPVY [F20W]	2.41
YHIYVALEEEIERNKESPVDAPVY [F20D]	2.95
YHIYVALEEEIERNKKSPVFAPVY [E16K]	2.13
YHIYVALEEEIERNKPSPVFAPVY [E16P]	2.23
YHIYVALEEEIERNKMSPVFAPVY [E16M]	1.8
YHIYVALEEEIERNKFSPVFAPVY [E16F]	2.84
YHIYVALEEEIERNKSSPVFAPVY [E16S]	2.04
YHIYVALEEEIERNKCSPVFAPVY [E16C]	1.57
YHIYVALEEEIERNKWSPVFAPVY [E16W]	2.14
YHIYVALEEEIERNKASPVFAPVY [E16A]	2.67

Variant	protein stability index
YHIYVALEEEIERNKISPVFAPVY [E16I]	1.42
YHIYVALEEEIERNKQSPVFAPVY [E16Q]	2.11
YHIYVALEEEIERNKTSPVFAPVY [E16T]	2.12
YHIYVALEEEIERNKDSPVFAPVY [E16D]	1.59
YHIYVALEEEIERNKYSPVFAPVY [E16Y]	1.88
YHIYVALEEEIERNKNSPVFAPVY [E16N]	2.25
YHIYVALEEEIERNKGSPVFAPVY [E16G]	2.04
YHIYVALEEEIERNKLSPVFAPVY [E16L]	2.32
YHIYVALEEEIERNKRSPVFAPVY [E16R]	1.8
YHIYVALEEEIERNKHSPVFAPVY [E16H]	2.08
YHIYVALEEEIERNKVSPVFAPVY [E16V]	2.14
YHIYVALEEEIERNKESPVFAPNY [V23N]	1.78
YHIYVALEEEIERNKESPVFAPEY [V23E]	2.63
YHIYVALEEEIERNKESPVFAPCY [V23C]	2.12
YHIYVALEEEIERNKESPVFAPRY [V23R]	2.87
YHIYVALEEEIERNKESPVFAPGY [V23G]	2.1
YHIYVALEEEIERNKESPVFAPTY [V23T]	1.83
YHIYVALEEEIERNKESPVFAPPY [V23P]	2.69
YHIYVALEEEIERNKESPVFAPSY [V23S]	1.85
YHIYVALEEEIERNKESPVFAPMY [V23M]	1.89
YHIYVALEEEIERNKESPVFAPDY [V23D]	2.69
YHIYVALEEEIERNKESPVFAPLY [V23L]	1.77
YHIYVALEEEIERNKESPVFAPHY [V23H]	1.84

Variant	protein stability index
YHIYVALEEEIERNKESPVFAPQY [V23Q]	1.99
YHIYVALEEEIERNKESPVFAPAY [V23A]	2.27
YHIYVALEEEIERNKESPVFAPKY [V23K]	2.09
YHIYVALEEEIERNKESPVFAPYY [V23Y]	1.64
YHIYVALEEEIERNKESPVFAPIY [V23I]	1.87
YHIYVALEEEIERNKESPVFAPWY [V23W]	2.65
YHIYVALEEEIERNKESPVFAPFY [V23F]	1.78
YHIYVALEEEIERNKESMVFAPVY [P18M]	1.75
YHIYVALEEEIERNKESSVFAPVY [P18S]	2.13
YHIYVALEEEIERNKESHVFAPVY [P18H]	2.23
YHIYVALEEEIERNKESGVFAPVY [P18G]	2.46
YHIYVALEEEIERNKESVVFAPVY [P18V]	1.59
YHIYVALEEEIERNKESKVFAPVY [P18K]	2.03
YHIYVALEEEIERNKESLVFAPVY [P18L]	1.53
YHIYVALEEEIERNKESYVFAPVY [P18Y]	1.89
YHIYVALEEEIERNKESRVFAPVY [P18R]	1.98
YHIYVALEEEIERNKESCVFAPVY [P18C]	1.85
YHIYVALEEEIERNKESNVFAPVY [P18N]	2.36
YHIYVALEEEIERNKESDVFAPVY [P18D]	2.3
YHIYVALEEEIERNKESIVFAPVY [P18I]	1.49
YHIYVALEEEIERNKESEVFAPVY [P18E]	2.59
YHIYVALEEEIERNKESTVFAPVY [P18T]	2.06
YHIYVALEEEIERNKESWVFAPVY [P18W]	2.31

Variant	protein stability index
YHIYVALEEEIERNKESQVFAPVY [P18Q]	1.61
YHIYVALEEEIERNKESFVFAPVY [P18F]	1.79
YHIYVALEEEIERNKESAVFAPVY [P18A]	2.14
YHIYVALEEEIERNKESPVFASVY [P22S]	1.55
YHIYVALEEEIERNKESPVFAVVY [P22V]	3.15
YHIYVALEEEIERNKESPVFADVY [P22D]	1.8
YHIYVALEEEIERNKESPVFARVY [P22R]	2.06
YHIYVALEEEIERNKESPVFAAVY [P22A]	2.12
YHIYVALEEEIERNKESPVFAKVY [P22K]	2.14
YHIYVALEEEIERNKESPVFAEVY [P22E]	2.52
YHIYVALEEEIERNKESPVFAIVY [P22I]	2.61
YHIYVALEEEIERNKESPVFATVY [P22T]	2.1
YHIYVALEEEIERNKESPVFACVY [P22C]	1.54
YHIYVALEEEIERNKESPVFAYVY [P22Y]	1.77
YHIYVALEEEIERNKESPVFAWVY [P22W]	1.87
YHIYVALEEEIERNKESPVFAMVY [P22M]	3.18
YHIYVALEEEIERNKESPVFAGVY [P22G]	1.76
YHIYVALEEEIERNKESPVFAHVY [P22H]	1.98
YHIYVALEEEIERNKESPVFANVY [P22N]	1.68
YHIYVALEEEIERNKESPVFAFVY [P22F]	2.91
YHIYVALEEEIERNKESPVFAQVY [P22Q]	1.98
YHIYVALEEEIERNKESPVFNPVY [A21N]	2.31
YHIYVALEEEIERNKESPVFPPVY [A21P]	2.06

Variant	protein stability index
YHIYVALEEEIERNKESPVFQPVY [A21Q]	2.41
YHIYVALEEEIERNKESPVFMPVY [A21M]	1.99
YHIYVALEEEIERNKESPVFIPVY [A21I]	1.87
YHIYVALEEEIERNKESPVFVPVY [A21V]	1.76
YHIYVALEEEIERNKESPVFGPVY [A21G]	2.43
YHIYVALEEEIERNKESPVFFPVY [A21F]	2.21
YHIYVALEEEIERNKESPVFKPVY [A21K]	2.8
YHIYVALEEEIERNKESPVFSPVY [A21S]	2.02
YHIYVALEEEIERNKESPVFHPVY [A21H]	2.06
YHIYVALEEEIERNKESPVFLPVY [A21L]	1.58
YHIYVALEEEIERNKESPVFYPVY [A21Y]	1.49
YHIYVALEEEIERNKESPVFTPVY [A21T]	2
YHIYVALEEEIERNKESPVFDPVY [A21D]	2.91
YHIYVALEEEIERNKESPVFWPVY [A21W]	1.7
YHIYVALEEEIERNKESPVFRPVY [A21R]	2.2
YHIYVALEEEIERNKESPVFEPVY [A21E]	2.41
YHIYVALEEEIERNKESPVFCPVY [A21C]	1.72
YHIYVALEEEIERNKEQPVFAPVY [S17Q]	1.57
YHIYVALEEEIERNKEEPVFAPVY [S17E]	1.85
YHIYVALEEEIERNKELPVFAPVY [S17L]	2.19
YHIYVALEEEIERNKEDPVFAPVY [S17D]	2.3
YHIYVALEEEIERNKENPVFAPVY [S17N]	2.05
YHIYVALEEEIERNKEPPVFAPVY [S17P]	2.02

Variant	protein stability index
YHIYVALEEEIERNKETPVFAPVY [S17T]	1.69
YHIYVALEEEIERNKEAPVFAPVY [S17A]	2.27
YHIYVALEEEIERNKEYPVFAPVY [S17Y]	1.26
YHIYVALEEEIERNKEKPVFAPVY [S17K]	2.14
YHIYVALEEEIERNKEFPVFAPVY [S17F]	1.88
YHIYVALEEEIERNKEVPVFAPVY [S17V]	1.65
YHIYVALEEEIERNKEHPVFAPVY [S17H]	1.83
YHIYVALEEEIERNKEMPVFAPVY [S17M]	1.93
YHIYVALEEEIERNKEWPVFAPVY [S17W]	2.65
YHIYVALEEEIERNKECPVFAPVY [S17C]	1.86
YHIYVALEEEIERNKEIPVFAPVY [S17I]	2.46
YHIYVALEEEIERNKERPVFAPVY [S17R]	2.2
YHIYVALEEEIERNKEGPVFAPVY [S17G]	2.29
YHIYVALEEEIERNTESPVFAPVY [K15T]	1.36
YHIYVALEEEIERNRESPVFAPVY [K15R]	1.38
YHIYVALEEEIERNPESPVFAPVY [K15P]	1.53
YHIYVALEEEIERNIESPVFAPVY [K15I]	1.87
YHIYVALEEEIERNFESPVFAPVY [K15F]	2.13
YHIYVALEEEIERNGESPVFAPVY [K15G]	1.9
YHIYVALEEEIERNHESPVFAPVY [K15H]	1.42
YHIYVALEEEIERNYESPVFAPVY [K15Y]	2.13
YHIYVALEEEIERNLESPVFAPVY [K15L]	2.22
YHIYVALEEEIERNVESPVFAPVY [K15V]	1.83

Variant	protein stability index
YHIYVALEEEIERNNESPVFAPVY [K15N]	1.7
YHIYVALEEEIERNSESPVFAPVY [K15S]	1.98
YHIYVALEEEIERNQESPVFAPVY [K15Q]	2.59
YHIYVALEEEIERNWESPVFAPVY [K15W]	2.21
YHIYVALEEEIERNKESPCFAPVY [V19C]	1.81
YHIYVALEEEIERNKESPFFAPVY [V19F]	1.84
YHIYVALEEEIERNKESPYFAPVY [V19Y]	1.46
YHIYVALEEEIERNKESPSFAPVY [V19S]	2.15
YHIYVALEEEIERNKESPLFAPVY [V19L]	1.7
YHIYVALEEEIERNKESPEFAPVY [V19E]	2.93
YHIYVALEEEIERNKESPWFAPVY [V19W]	1.57
YHIYVALEEEIERNKESPQFAPVY [V19Q]	2.14
YHIYVALEEEIERNKESPKFAPVY [V19K]	1.99
YHIYVALEEEIERNKESPAFAPVY [V19A]	2.3
YHIYVALEEEIERNKESPIFAPVY [V19I]	1.72
YHIYVALEEEIERNKESPTFAPVY [V19T]	2.32
YHIYVALEEEIERNKESPNFAPVY [V19N]	2.69
YHIYVALEEEIERNKESPMFAPVY [V19M]	2.24
YHIYVALEEEIERNKESPGFAPVY [V19G]	2.37
YHIYVALEEEIERNKESPRFAPVY [V19R]	3.44
YHIYVALEEEIERNKESPHFAPVY [V19H]	2.13
YHIYVALEEEIERNKESPPFAPVY [V19P]	2.35
YHIYVALEEEIERNKESPDFAPVY [V19D]	2.7

Variants of: B2
Test: as above
Conditions: c terminus: a fixed tail appended

Variant	protein stability index
DNRADYCPECYPDNPANRSLVLPW [I1D]	2.75
ENRADYCPECYPDNPANRSLVLPW [I1E]	1.93
ANRADYCPECYPDNPANRSLVLPW [I1A]	2.15
CNRADYCPECYPDNPANRSLVLPW [I1C]	2.53
